Reference: patent US20210025886A1 (Alexion, published 2021)

Molecular target: T1, complement fragment C3a (Complement Technologies cat # A118) (human, UniProt P01024 672-748)
T1 construct: domain: C3a; also called purified C3a
Experiment: TR-FRET sandwich, purified C3a titrated from 66.6 nM, antibodies 50 nM each
Description: Labeled antibodies were then used to detect C3a in a sample that also contained intact C3 and C3b fragments. […] For the detection assay, complement C3 and fragments C3a and C3b were purchased from Complement Technologies (cat # A113c, A118, and A114, respectively). They were aliquoted and stored at −80° C. Each complement protein was titrated individually or as a mixture in assay buffer (10 mM HEPES pH 7.4, 0.1% BSA) at final concentrations of 66.6 nM serially diluted. Detection antibodies were combined in assay buffer to make a C3a detection mixture at final concentrations of 50 nM each in assay. Then, 15 μl of the appropriate C3 reagent was added to the appropriate wells of a white 384 well Optiplate (Perkin Elmer Cat. #600-7290). To each well, 15 μl antibody detection mix was then added. The plate was spun at 4000 RPM for 20 seconds and read on a Paradigm Spectramax instrument using the Cisbio htrf cartridge (excite at 340 nm and emit at 615 nm and 665 nm). The plate was read periodically and the signal calculated by dividing the 665 signal by the 615 signal and multiplying by 10000.

T1 sequence (P01024 672-748 limits assumed): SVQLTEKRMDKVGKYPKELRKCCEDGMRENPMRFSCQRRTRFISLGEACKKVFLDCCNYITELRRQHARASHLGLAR

binding result: binds
B1: C3a antibody YHP133 (antibody, human IgG1, kappa, V domains shown)
VH: EVQLQQSGAELVRPGASVKLSCTASGFNIKDSLIHWVKQRPEQGLEWIGWIDPDDGETKYAPKFQDKATITADTSSNTAYLQFSSLTSEDTAIYYCAGRSGEGYFDYWGQGTTVTVSS
VL: DIVMTQSPATLSVTPGDRVSLSCRASQSISDYLHWYQQKSHESPRLLIKYASQSISGIPSRFSGSGSGSDFTLSINSVEPEDVGVYYCQNGHSFPLTFGAGTKVEIKR
modifications: labeled with d2 dye (Cisbio d2 labeling kit); site not stated
notes: Synthesized and purified according to standard procedures; used d2-labeled in the FRET assays; also called the other C3a antibody; acceptor antibody
